{
  "source": "IntAct's records for PubMed 11739401",
  "parents": {"B1": {"name": "Ras-related protein Rab-2A (Homo sapiens), P61019 (parent)", "chain": "MAYAYLFKYIIIGDTGVGKSCLLLQFTDKRFQPVHDLTIGVEFGARMITIDGKQIKLQIWDTAGQESFRSITRSYYRGAAGALLVYDITRRDTFNHLTTWLEDARQHSNSNMVIMLIGNKSDLESRREVKKEEGEAFAREHGLIFMETSAKTASNVEEAFINTAKEIYEKIQEGVFDINNEANGIKIGPQHAATNATHAGNQGGQQAGGGCC", "partner": "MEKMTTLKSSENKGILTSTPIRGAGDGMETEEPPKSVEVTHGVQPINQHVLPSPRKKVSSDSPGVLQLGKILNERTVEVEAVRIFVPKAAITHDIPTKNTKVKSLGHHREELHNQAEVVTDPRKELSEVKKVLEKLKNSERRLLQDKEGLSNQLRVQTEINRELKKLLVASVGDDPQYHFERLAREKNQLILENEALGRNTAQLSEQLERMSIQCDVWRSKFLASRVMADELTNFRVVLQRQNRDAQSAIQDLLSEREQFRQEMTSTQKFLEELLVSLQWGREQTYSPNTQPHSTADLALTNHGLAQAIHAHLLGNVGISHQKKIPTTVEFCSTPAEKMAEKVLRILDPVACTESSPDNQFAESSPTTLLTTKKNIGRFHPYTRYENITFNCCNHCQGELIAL"}},
  "data": [
    {"variants_of": "B1", "details": "with go45_mouse Blzf1, Q8R2X8", "values": [
      {"variant": "Q65L", "effect of a mutation on the interaction": "increasing interaction"}
    ]}
  ]
}
